Test results as given in article PMC3172369 (Biochemistry, 2011).

B1: human Npm2-core domain (T15-E122) (domain or fragment, UniProt Q86SE8 15-122, looked up)
chain: TTVLWGCELSQERRTWTFRPQLEGKQSCRLLLHTICLGEKAKEEMHRVEILPPANQEDKKMQPVTIASLQASVLPMVSMVGVQLSPPVTFQLRAGSGPVFLSGQERYE
B2: Np-core labelled at Cys41 with a DyLight dye (domain or fragment, Xenopus laevis, UniProt P05221 11-124, looked up)
chain: LEKPVSLIWGCELNEQDKTFEFKVEDDEEKCEHQLALRTVCLGDKAKDEFNIVEIVTQEEGAEKSVPIATLKPSILPMATMVGIELTPPVTFRLKAGSGPLYISGQHVAMEEDY
modifications: DyLight 549-maleimide or DyLight 649-maleimide on Cys41

Tests used:
crystal structure = biological target: the molecule itself; experiment: crystal structure
native gel or EMSA = biological target: the molecule itself; experiment: native gel or EMSA

Protein | stoichiometry N (crystal structure) | stoichiometry N (native gel or EMSA)
B1 | 5 | 
B2 |  | 5
